Reference: patent publication US20090018093
Like-named read-outs stand apart in the source and are kept apart here.

Assays:
[1] = test system: Immunoglobulin E (IgE) (Homo sapiens), P01854-1; experiment: inhibition; settings: FACS
[2] = test system: Immunoglobulin E (IgE) (Homo sapiens), P01854-1; experiment: filter

Sequence of Immunoglobulin E (IgE) (Homo sapiens), P01854-1 (P01854 other isoform, or with tags, fused parts or gaps): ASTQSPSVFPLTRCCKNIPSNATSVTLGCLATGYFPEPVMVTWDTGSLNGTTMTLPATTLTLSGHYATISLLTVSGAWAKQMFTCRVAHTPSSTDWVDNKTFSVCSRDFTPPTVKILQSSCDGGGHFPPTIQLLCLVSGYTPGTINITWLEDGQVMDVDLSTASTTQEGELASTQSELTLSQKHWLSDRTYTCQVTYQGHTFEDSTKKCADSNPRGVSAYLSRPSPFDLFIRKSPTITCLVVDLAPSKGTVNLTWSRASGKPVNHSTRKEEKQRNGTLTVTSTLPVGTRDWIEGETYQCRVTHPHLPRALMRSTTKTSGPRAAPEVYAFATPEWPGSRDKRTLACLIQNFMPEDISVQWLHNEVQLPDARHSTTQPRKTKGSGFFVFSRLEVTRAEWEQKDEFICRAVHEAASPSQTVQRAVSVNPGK

Sequence: AGCCUGGGGACCCAUGGGGGGCU [ARC1785]
- IC50 ([1]; ARC1666 chemistry, 5' and 3' 20 kDa PEG [dI at 16,18,20 (written as parent G), PS after 8,15,16,18,20, 2'-OMe/2'-deoxy mix (ARC1666 chemistry), 5' and 3' amine linker-20 kDa PEG left out], IgE-FceR1 on SX38 cells): 2 nM

Sequence: AGCCUGGGGACCCAUGGGGGGCU [ARC1790]
- IC50 ([1]; ARC1666 chemistry, 5' and 3' 30 kDa PEG [dI at 16,18,20 (written as parent G), PS after 8,15,16,18,20, 2'-OMe/2'-deoxy mix (ARC1666 chemistry), 5' and 3' amine linker-30 kDa PEG left out], IgE-FceR1 on SX38 cells): 0.89 nM

Sequence: GGGGCTACTTTATCCGTTCCTCCTAGTGGGTAGCCCC [ARC656]
- IC50 ([1]; 3' idT [3' idT left out], 2.5 nM IgE, histamine release IC50 16.9 nM): 21.2 nM

Sequence: GGGGCTACTTTATCCGTTCCTCCTAGTGGGTAGCCCCN [ARC1280]
- Kd ([2]; 2'-OMe at 16, 3' idT, DPBS Mg/Ca, BSA): 0.6 nM

Sequence: GGGGCTACTTTATCCGTTCCTCCTAGTGGGTAGCCCCN [ARC1283]
- Kd ([2]; 2'-OMe at 19, 3' idT, DPBS Mg/Ca, BSA): 0.6 nM

Sequence: GGGGCTACTTTATCCGTTCCTCCTAGTGGGTAGCCCCN [ARC1284]
- Kd ([2]; 2'-OMe at 20, 3' idT, DPBS Mg/Ca, BSA): 0.1 nM

Sequence: GGGGCTACTTTATCCGTTCCTCCTAGTGGGTAGCCCCN [ARC1287]
- Kd ([2]; 2'-OMe at 23, 3' idT, DPBS Mg/Ca, BSA): 1 nM

Sequence: GGGGCTACTTTATCCGTTCCTCCTAGTGGGTAGCCCCN [ARC1294]
- Kd ([2]; 2'-OMe at 30, 3' idT, DPBS Mg/Ca, BSA): 8 nM

Sequence: GGGGCTACTTTATCCGTTCCTCCTAGTGGGTAGCCCCN [ARC1296]
- Kd ([2]; 2'-OMe at 32, 3' idT, DPBS Mg/Ca, BSA): 1.2 nM

Sequence: GGGGCTACTTTATCCGTTCCTCCTAGTGGGTAGCCCCN [ARC1297]
- Kd ([2]; 2'-OMe at 33, 3' idT, DPBS Mg/Ca, BSA): 0.8 nM

Sequence: GGGGCTACTTTATCCGTTCCTCCTAGTGGGTAGCCCCT [ARC656]
- Kd ([2]; 3' idT [38 = 3' inverted dT], dPBS Ca/Mg + BSA): 0.2 nM

Sequence: GGGGCTACTTTATCCGTTCCTCCTAGTGGGTAGCCCCT [ARC1265]
- Kd ([2]; 2'-OMe at 1, 3' idT [1=2'-OMe G, 38=3' inverted dT], DPBS Mg/Ca, BSA): 0.2 nM

Sequence: GGGGCTACTTTATCCGTTCCTCCTAGTGGGTAGCCCCT [ARC1266]
- Kd ([2]; 2'-OMe at 2, 3' idT [2 (2'-OMe G), 38 (3' inverted dT)], DPBS Mg/Ca, BSA): 0.2 nM

Sequence: GGGGCTACTTTATCCGTTCCTCCTAGTGGGTAGCCCCT [ARC1267]
- Kd ([2]; 2'-OMe at 3, 3' idT [3 (2'-OMe G), 38 (3' inverted dT)], DPBS Mg/Ca, BSA): 0.1 nM

Sequence: GGGGCTACTTTATCCGTTCCTCCTAGTGGGTAGCCCCT [ARC1268]
- Kd ([2]; 2'-OMe at 4, 3' idT [4 (2'-OMe G), 38 (3' inverted dT)], DPBS Mg/Ca, BSA): 0.2 nM

Sequence: GGGGCTACTTTATCCGTTCCTCCTAGTGGGTAGCCCCT [ARC1269]
- Kd ([2]; 2'-OMe at 5, 3' idT [5 (2'-OMe C), 38 (3' inverted dT)], DPBS Mg/Ca, BSA): 0.3 nM

Sequence: GGGGCTACTTTATCCGTTCCTCCTAGTGGGTAGCCCCT [ARC1271]
- Kd ([2]; 2'-OMe at 7, 3' idT [7 (2'-OMe A), 38 (3' inverted dT)], DPBS Mg/Ca, BSA): 0.2 nM

Sequence: GGGGCTACTTTATCCGTTCCTCCTAGTGGGTAGCCCCT [ARC1272]
- Kd ([2]; 2'-OMe at 8, 3' idT [8 (2'-OMe C), 38 (3' inverted dT)], DPBS Mg/Ca, BSA): 0.2 nM

Sequence: GGGGCTACTTTATCCGTTCCTCCTAGTGGGTAGCCCCT [ARC1276]
- Kd ([2]; 2'-OMe at 12, 3' idT [12 (2'-OMe A), 38 (3' inverted dT)], DPBS Mg/Ca, BSA): 3 nM

Sequence: GGGGCTACTTTATCCGTTCCTCCTAGTGGGTAGCCCCT [ARC1278]
- Kd ([2]; 2'-OMe at 14, 3' idT [14 (2'-OMe C), 38 (3' inverted dT)], DPBS Mg/Ca, BSA): 2 nM

Sequence: GGGGCTACTTTATCCGTTCCTCCTAGTGGGTAGCCCCT [ARC1279]
- Kd ([2]; 2'-OMe at 15, 3' idT [15 (2'-OMe C), 38 (3' inverted dT)], DPBS Mg/Ca, BSA): 0.8 nM

Sequence: GGGGCTACTTTATCCGTTCCTCCTAGTGGGTAGCCCCT [ARC1286]
- Kd ([2]; DNA with 2'-OMe C22, 3' idT [2'-OMe C22, 3' inverted dT38], dPBS Ca/Mg + BSA): 7 nM

Sequence: GGGGCTACTTTATCCGTTCCTCCTAGTGGGTAGCCCCT [ARC1292]
- Kd ([2]; DNA with 2'-OMe G28, 3' idT [2'-OMe G28, 3' inverted dT at 38], dPBS Ca/Mg + BSA): 22 nM

Sequence: GGGGCTACTTTATCCGTTCCTCCTAGTGGGTAGCCCCT [ARC1298]
- Kd ([2]; 2'-OMe at 34, 3' idT [2'-OMe: 34, 38 = 3' inverted dT], DPBS Mg/Ca, BSA): 0.4 nM

Sequence: GGGGCTACTTTATCCGTTCCTCCTAGTGGGTAGCCCCT [ARC1299]
- Kd ([2]; 2'-OMe at 35, 3' idT [2'-OMe: 35, 38 = 3' inverted dT], DPBS Mg/Ca, BSA): 0.5 nM

Sequence: GGGGCTACTTTATCCGTTCCTCCTAGTGGGTAGCCCCT [ARC1300]
- Kd ([2]; 2'-OMe at 36, 3' idT [2'-OMe: 36, 38 = 3' inverted dT], DPBS Mg/Ca, BSA): 0.7 nM

Sequence: GGGGCTACTTTATCCGTTCCTCCTAGTGGGTAGCCCCT [ARC1301]
- Kd ([2]; 2'-OMe at 37, 3' idT [2'-OMe: 37, 38 = 3' inverted dT], DPBS Mg/Ca, BSA): 0.5 nM

Sequence: GGGGCTACTTTATCCGTTCCTCCTAGTGGGTAGCCCCT [ARC1302]
- Kd ([2]; DNA with 2'-OMe G1-G4,A7,G30,A32,G33, 3' idT [2'-OMe G1-G4, A7, G30, A32, G33, 3' inverted dT at 38], dPBS Ca/Mg + BSA): 19 nM

Sequence: GGGGCTACTTTATCCGTTCCTCCTAGTGGGTAGCCCCT [ARC1304]
- Kd ([2]; 2'-OMe at 1-4,34-37, 3' idT [2'-OMe: 1-4,34-37, 38 = 3' inverted dT], DPBS Mg/Ca, BSA): 0.6 nM

Sequence: GGGGCTACTTTATCCGTTCCTCCTAGTGGGTAGCCCCT [ARC1387]
- Kd ([2]; 2'-OMe at 1-4,7,33-37, 3' idT [2'-OMe: 1-4,7,33-37, 38 = 3' inverted dT], DPBS Mg/Ca, BSA): 2.4 nM

Sequence: GGGGCTACTTTATCCGTTCCTCCTAGTGGGTAGCCCCT [ARC1410]
- Kd ([2]; DNA with 2'-OMe G1-G4,A7,G33-C37, PS between T27 and G28, 3' idT [2'-OMe G1-G4, A7, G33-C37, PS 27/28 (printed N = PS linkage, left out), 3' inverted dT at 38], dPBS Ca/Mg + BSA): 0.7 nM

Sequence: GGGGCTACTTTATCCGTTCCTCCTAGTGGGUAGCCCCN [ARC1295]
- Kd ([2]; 2'-OMe U at 31, 3' idT, DPBS Mg/Ca, BSA): 3 nM

Sequence: GGGGCTACTTTATCCGTTCCTCCUAGTGGGTAGCCCCN [ARC1288]
- Kd ([2]; 2'-OMe U at 24, 3' idT, DPBS Mg/Ca, BSA): 2 nM

Sequence: GGGGCTACTTTATCCGTTCCUCCTAGTGGGTAGCCCCN [ARC1285]
- Kd ([2]; 2'-OMe U at 21, 3' idT, DPBS Mg/Ca, BSA): 0.8 nM

Sequence: GGGGCTACTTTATCCGTUCCTCCTAGTGGGTAGCCCCN [ARC1282]
- Kd ([2]; 2'-OMe U at 18, 3' idT, DPBS Mg/Ca, BSA): 0.2 nM

Sequence: GGGGCTACTTTATCCGUTCCTCCTAGTGGGTAGCCCCN [ARC1281]
- Kd ([2]; 2'-OMe U at 17, 3' idT, DPBS Mg/Ca, BSA): 0.1 nM

Sequence: GGGGCTACTTTAUCCGTTCCTCCTAGTGGGTAGCCCC [ARC1277]
- Kd ([2]; DNA with 2'-OMe U13, 3' idT [2'-OMe U13, 3' inverted dT38], dPBS Ca/Mg + BSA): 6 nM

Sequence: GGGGCTACTTUATCCGTTCCTCCTAGTGGGTAGCCCC [ARC1275]
- Kd ([2]; 2'-OMe U at 11, 3' idT [11 (2'-OMe U), 38 (3' inverted dT)], DPBS Mg/Ca, BSA): 0.3 nM

Sequence: GGGGCTACTTUATCCGUUCCTCCTAGTGGGTAGCCCC [ARC1389]
- Kd ([2]; 2'-OMe at 1-4,7,11,17,18,20,33-37, 3' idT [2'-OMe: 1-4,7,11,17,18,20,33-37, 38 = 3' inverted dT], DPBS Mg/Ca, BSA): 5.4 nM

Sequence: GGGGCTACTUTATCCGTTCCTCCTAGTGGGTAGCCCC [ARC1274]
- Kd ([2]; 2'-OMe U at 10, 3' idT [10 (2'-OMe U), 38 (3' inverted dT)], DPBS Mg/Ca, BSA): 2 nM

Sequence: GGGGCTACUTTATCCGTTCCTCCTAGTGGGTAGCCCC [ARC1273]
- Kd ([2]; DNA with 2'-OMe U9, 3' idT [2'-OMe U9, 3' inverted dT38], dPBS Ca/Mg + BSA): 3 nM

Sequence: GGGGCUACTTTATCCGTTCCTCCTAGTGGGTAGCCCC [ARC1270]
- Kd ([2]; 2'-OMe U at 6, 3' idT [6 (2'-OMe U), 38 (3' inverted dT)], DPBS Mg/Ca, BSA): 0.2 nM

Sequence: GGGGCUACTTTATCCGTTCCTCCTAGTGGGTAGCCCC [ARC1388]
- Kd ([2]; 2'-OMe at 1-8,33-37, 3' idT [2'-OMe: 1-8,33-37, 38 = 3' inverted dT], DPBS Mg/Ca, BSA): 4.4 nM

Sequence: GGGGCUACTTTATCCGTTCCTCCTAGTGGGUAGCCCC [ARC1303]
- Kd ([2]; 2'-OMe stem block as printed in Table 18, 3' idT [2'-OMe: stem block (exact positions not given in the material), 38 = 3' inverted dT], DPBS Mg/Ca, BSA): 1.3 nM

Sequence: GGGGCUACTTUATCCGUUCCTCCTAGTGGGTAGCCCC [ARC1390]
- Kd ([2]; 2'-OMe at 1-8,11,17,18,20,33-37, 3' idT [2'-OMe: 1-8,11,17,18,20,33-37, 38 = 3' inverted dT], DPBS Mg/Ca, BSA): 17 nM

Sequence: GGGGCUACTTUATCCGUUCCTCCTAGTGGGTAGCCCC [ARC1417]
- Kd ([2]; DNA with 2'-OMe 1-8,U11,U17,U18,C20,33-37, multiple PS, 3' idT [2'-OMe 1-8, U11, U17, U18, C20, 33-37, PS 9/10, 12/13, 14/15, 21/22, 24/25, 27/28, 30/31 (printed N = PS linkage, left out), 3' inverted dT at 38], dPBS Ca/Mg + BSA): 27 nM

Sequence: GGGGTACCTTTATCCGTTTCTCCTAGTGGGGTGCCCC [DNA clone SEQ 132]
- Kd [2]: 0.4 nM

Sequence: GGGGTATGTTGATCCGTCCCTCCTAGTGGCATGCCCC [DNA clone SEQ 133]
- Kd [2]: 0.7 nM

Sequence: NNAGCCUGGGNGACCCAUNNNGNNGNNGCUN [ARC1787]
- IC50 ([1]; ARC1666 chemistry, 5' 40 kDa branched PEG, 3' idT, IgE-FceR1 on SX38 cells): 1.2 nM
